Patent publication EP1127148B1

Molecular target: TAG-72 positive bovine submaxillary mucin (BSM) (bovine)
Experiment: relative affinity constant from competition RIA on BSM

humanized monoclonal antibody CC49 (HuCC49)
Ka: 3.2e+08 M⁻¹
